Reference: the supplement of paper PMC5998384

Assays:
HeLa Kyoto [1] = assay: thermal stability score vs G1/S (z-score of summed log2 fold changes over temperatures); higher = more thermally stable than in G1/S
HeLa Kyoto [2] = assay: solubility change mitosis vs G1/S (difference of NP-40 vs SDS log2 ratios) (log2 ratio difference); higher = more soluble in mitosis
HeLa Kyoto [3] = assay: solubility in G1/S (NP-40 vs SDS abundance) (log2 ratio); higher = more soluble; conditions: cell cycle stage: G1/S
HeLa Kyoto [4] = assay: melting temperature (median over replicates), in situ; higher = more thermally stable
[5] = cell cycle stage: early G1 (4.5 h after nocodazole release)
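For melting temperature (median over replicates), in situ in this document: HeLa Kyoto cells synchronized by double thymidine or nocodazole block, proteins quantified by TMT10plex mass spectrometry, three independent biological replicates.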
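For solubility change mitosis vs G1/S (difference of NP-40 vs SDS log2 ratios) in this document: synchronized HeLa Kyoto cells (double thymidine block for G1/S, nocodazole release for mitosis), protein amounts in NP-40 versus SDS lysates quantified by mass spectrometry, three biological replicates.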
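For solubility in G1/S (NP-40 vs SDS abundance) in this document: HeLa Kyoto cells arrested at G1/S by double thymidine block, proteins quantified by TMT10plex mass spectrometry in mild NP-40 versus SDS extracts, three biological replicates.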
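For thermal stability score vs G1/S (z-score of summed log2 fold changes over temperatures) in this document: synchronized HeLa Kyoto cells, proteins quantified by TMT10plex mass spectrometry, three biological replicates, mitosis taken 0.5 h after nocodazole release, G1/S directly after double thymidine block.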

Chain of CCBL2 (chain, as listed by the source): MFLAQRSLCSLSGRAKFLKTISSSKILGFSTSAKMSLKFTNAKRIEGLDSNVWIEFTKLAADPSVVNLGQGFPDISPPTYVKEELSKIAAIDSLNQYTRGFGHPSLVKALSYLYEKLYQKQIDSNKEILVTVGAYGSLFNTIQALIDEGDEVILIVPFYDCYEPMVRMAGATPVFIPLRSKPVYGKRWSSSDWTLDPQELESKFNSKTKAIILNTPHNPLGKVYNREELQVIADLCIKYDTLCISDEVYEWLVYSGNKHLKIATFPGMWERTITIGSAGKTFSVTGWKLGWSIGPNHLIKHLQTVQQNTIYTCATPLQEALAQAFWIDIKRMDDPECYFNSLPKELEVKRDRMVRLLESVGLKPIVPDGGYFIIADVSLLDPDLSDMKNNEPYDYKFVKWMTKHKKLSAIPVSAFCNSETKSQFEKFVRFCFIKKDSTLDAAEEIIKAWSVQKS

Substance | thermal stability score (HeLa Kyoto [1]; [5]) | thermal stability score (HeLa Kyoto [1]; cell cycle stage: mitosis) | solubility change mitosis (log2) (HeLa Kyoto [2]) | solubility in G1/S (log2) (HeLa Kyoto [3]) | melting temperature (HeLa Kyoto [4]; cell cycle stage: G1/S) [°C] | melting temperature (HeLa Kyoto [4]; cell cycle stage: mitosis) [°C]
MLKSKTFLKKTRAGGVMKIVREHYLRDDIGCGAPGCAACGGAHEGPALEPQPQDPASSVCPQPHYLLPDTNVLLHQIDVLEDPAIRNVIVLQTVLQEVRNRSAPVYKRIRDVTNNQEKHFYTFTNEHHRETYVEQEQGENANDRNDRAIRVAAKWYNEHLKKMSADNQLQVIFITNDRRNKEKAIEEGIPAFTCEEYVKSLTANPELIDRLACLSEEGNEIESGKIIFSEHLPLSKLQQGIKSGTYLQGTFRASRENYLEATVWIHGDNEENKEIILQGLKHLNRAVHEDIVAVELLPKSQWVAPSSVVLHDEGQNEEDVEKEEETERMLKTAVSEKMLKPTGRVVGIIKRNWRPYCGMLSKSDIKESRRHLFTPADKRIPRIRIETRQASTLEGRRIIVAIDGWPRNSRYPNGHFVRNLGDVGEKETETEVLLLEHDVPHQPFSQAVLSFLPKMPWSITEKDMKNREDLRHLCICSVDPPGCTDIDDALHCRELENGNLEVGVHIADVSHFIRPGNALDQESARRGTTVYLCEKRIDMVPELLSSNLCSLKCDVDRLAFSCIWEMNHNAEILKTKFTKSVINSKASLTYAEAQLRIDSANMNDDITTSLRGLNKLAKILKKRRIEKGALTLSSPEVRFHMDSETHDPIDLQTKELRETNSMVEEFMLLANISVAKKIHEEFSEHALLRKHPAPPPSNYEILVKAARSRNLEIKTDTAKSLAESLDQAESPTFPYLNTLLRILATRCMMQAVYFCSGMDNDFHHYGLASPIYTHFTSPIRRYADVIVHRLLAVAIGADCTYPELTDKHKLADICKNLNFRHKMAQYAQRASVAFHTQLFFKSKGIVSEEAYILFVRKNAIVVLIPKYGLEGTVFFEEKDKPNPQLIYDDEIPSLKIEDTVFHVFDKVKVKIMLDSSNLQHQKIRMSLVEPQIPGISIPTDTSNMDLNGPKKKKMKLGK [DIS3] | 1.5 | 3.37 | -0.0946 | -0.0366 | 47.9 | 49.2
MGDKIWLPFPVLLLAALPPVLLPGAAGFTPSLDSDFTFTLPAGQKECFYQPMPLKASLEIEYQVLDGAGLDIDFHLASPEGKTLVFEQRKSDGVHTVETEVGDYMFCFDNTFSTISEKVIFFELILDNMGEQAQEQEDWKKYITGTDILDMKLEDILESINSIKSRLSKSGHIQTLLRAFEARDRNIQESNFDRVNFWSMVNLVVMVVVSAIQVYMLKSLFEDKRKSRT [TMED5] | 2.08 | 1.93 | -0.206 | 0.107 | 54.2 | 55.5
CCBL2 | -0.947 | -1.75 | -0.21 | 0.16 | 57.2 | 57.5
MGCTLSAEDKAAVERSKMIDRNLREDGEKAAKEVKLLLLGAGESGKSTIVKQMKIIHEDGYSEDECKQYKVVVYSNTIQSIIAIIRAMGRLKIDFGEAARADDARQLFVLAGSAEEGVMTPELAGVIKRLWRDGGVQACFSRSREYQLNDSASYYLNDLDRISQSNYIPTQQDVLRTRVKTTGIVETHFTFKDLYFKMFDVGGQRSERKKWIHCFEGVTAIIFCVALSDYDLVLAEDEEMNRMHESMKLFDSICNNKWFTETSIILFLNKKDLFEEKIKRSPLTICYPEYTGSNTYEEAAAYIQCQFEDLNRRKDTKEIYTHFTCATDTKNVQFVFDAVTDVIIKNNLKECGLY [GNAI3] | 0.761 | 0.823 | -0.175 | -0.638 | 53.5 | 54.2
MPENVAPRSGATAGAAGGRGKGAYQDRDKPAQIRFSNISAAKAVADAIRTSLGPKGMDKMIQDGKGDVTITNDGATILKQMQVLHPAARMLVELSKAQDIEAGDGTTSVVIIAGSLLDSCTKLLQKGIHPTIISESFQKALEKGIEILTDMSRPVELSDRETLLNSATTSLNSKVVSQYSSLLSPMSVNAVMKVIDPATATSVDLRDIKIVKKLGGTIDDCELVEGLVLTQKVSNSGITRVEKAKIGLIQFCLSAPKTDMDNQIVVSDYAQMDRVLREERAYILNLVKQIKKTGCNVLLIQKSILRDALSDLALHFLNKMKIMVIKDIEREDIEFICKTIGTKPVAHIDQFTADMLGSAELAEEVNLNGSGKLLKITGCASPGKTVTIVVRGSNKLVIEEAERSIHDALCVIRCLVKKRALIAGGGAPEIELALRLTEYSRTLSGMESYCVRAFADAMEVIPSTLAENAGLNPISTVTELRNRHAQGEKTAGINVRKGGISNILEELVVQPLLVSVSALTLATETVRSILKIDDVVNTR [CCT4] | -1.23 | -2.24 | -0.141 | 0.192 | 53.6 | 53.1
MCSLGLFPPPPPRGQVTLYEHNNELVTGSSYESPPPDFRGQWINLPVLQLTKDPLKTPGRLDHGTRTAFIHHREQVWKRCINIWRDVGLFGVLNEIANSEEEVFEWVKTASGWALALCRWASSLHGSLFPHLSLRSEDLIAEFAQVTNWSSCCLRVFAWHPHTNKFAVALLDDSVRVYNASSTIVPSLKHRLQRNVASLAWKPLSASVLAVACQSCILIWTLDPTSLSTRPSSGCAQVLSHPGHTPVTSLAWAPSGGRLLSASPVDAAIRVWDVSTETCVPLPWFRGGGVTNLLWSPDGSKILATTPSAVFRVWEAQMWTCERWPTLSGRCQTGCWSPDGSRLLFTVLGEPLIYSLSFPERCGEGKGCVGGAKSATIVADLSETTIQTPDGEERLGGEAHSMVWDPSGERLAVLMKGKPRVQDGKPVILLFRTRNSPVFELLPCGIIQGEPGAQPQLITFHPSFNKGALLSVGWSTGRIAHIPLYFVNAQFPRFSPVLGRAQEPPAGGGGSIHDLPLFTETSPTSAPWDPLPGPPPVLPHSPHSHL [AAAS] | -4.87 | -7.02 | 0.0315 | -0.296 | 53.6 | 51
MAADISESSGADCKGDPRNSAKLDADYPLRVLYCGVCSLPTEYCEYMPDVAKCRQWLEKNFPNEFAKLTVENSPKQEAGISEGQGTAGEEEEKKKQKRGGRGQIKQKKKTVPQKVTIAKIPRAKKKYVTRVCGLATFEIDLKEAQRFFAQKFSCGASVTGEDEIIIQGDFTDDIIDVIQEKWPEVDDDSIEDLGEVKK [DENR] | 0.263 | 0.467 | 0.142 | 0.481 | 56.9 | 58.6
MGELPLDINIQEPRWDQSTFLGRARHFFTVTDPRNLLLSGAQLEASRNIVQNYRAGVVTPGITEDQLWRAKYVYDSAFHPDTGEKVVLIGRMSAQVPMNMTITGCMLTFYRKTPTVVFWQWVNQSFNAIVNYSNRSGDTPITVRQLGTAYVSATTGAVATALGLKSLTKHLPPLVGRFVPFAAVAAANCINIPLMRQRELQVGIPVADEAGQRLGYSVTAAKQGIFQVVISRICMAIPAMAIPPLIMDTLEKKDFLKRRPWLGAPLQVGLVGFCLVFATPLCCALFPQKSSIHISNLEPELRAQIHEQNPSVEVVYYNKGL [SFXN3] | -0.249 | -0.897 | -0.0789 | 0.286 | 53.6 | 53.5
MAEGGGCRERPDAETQKSELGPLMRTTLQRGAQWYLIDSRWFKQWKKYVGFDSWDMYNVGEHNLFPGPIDNSGLFSDPESQTLKEHLIDELDYVLVPTEAWNKLLNWYGCVEGQQPIVRKVVEHGLFVKHCKVEVYLLELKLCENSDPTNVLSCHFSKADTIATIEKEMRKLFNIPAERETRLWNKYMSNTYEQLSKLDNTVQDAGLYQGQVLVIEPQNEDGTWPRQTLQSKSSTAPSRNFTTSPKSSASPYSSVSASLIANGDSTSTCGMHSSGVSRGGSGFSASYNCQEPPSSHIQPGLCGLGNLGNTCFMNSALQCLSNTAPLTDYFLKDEYEAEINRDNPLGMKGEIAEAYAELIKQMWSGRDAHVAPRMFKTQVGRFAPQFSGYQQQDSQELLAFLLDGLHEDLNRVKKKPYLELKDANGRPDAVVAKEAWENHRLRNDSVIVDTFHGLFKSTLVCPECAKVSVTFDPFCYLTLPLPLKKDRVMEVFLVPADPHCRPTQYRVTVPLMGAVSDLCEALSRLSGIAAENMVVADVYNHRFHKIFQMDEGLNHIMPRDDIFVYEVCSTSVDGSECVTLPVYFRERKSRPSSTSSASALYGQPLLLSVPKHKLTLESLYQAVCDRISRYVKQPLPDEFGSSPLEPGACNGSRNSCEGEDEEEMEHQEEGKEQLSETEGSGEDEPGNDPSETTQKKIKGQPCPKRLFTFSLVNSYGTADINSLAADGKLLKLNSRSTLAMDWDSETRRLYYDEQESEAYEKHVSMLQPQKKKKTTVALRDCIELFTTMETLGEHDPWYCPNCKKHQQATKKFDLWSLPKILVVHLKRFSYNRYWRDKLDTVVEFPIRGLNMSEFVCNLSARPYVYDLIAVSNHYGAMGVGHYTAYAKNKLNGKWYYFDDSNVSLASEDQIVTKAAYVLFYQRRDDEFYKTPSLSSSGSSDGGTRPSSSQQGFGDDEACSMDTN [USP4] | 0.154 | 0.64 | -0.278 | 0.0816 | 48.4 | 48.5
